Source: patent US20250188195A1

Molecular target: cotinine-conjugated anti-HER2 affibody (ZQAA1-Cot)
Test: ELISA, ZQAA1-Cot (2 ug/mL) captured on coated hHER2-ECD-His, anti-hIgG-Fc-HRP, absorbance at 450 nm

EC50 (read off the curve): 0.06 µg/mL
B1: humanized antibody (hz33B2) specifically binding to cotinine (antibody, V domains shown)
VH: QVQLVQSGAEVKKPGASVKVSCKASGYTFTSYWIQWVRQAPGQGLEWMGEIFPGTGTTYYNEKFKGRVTMTIDTSTSTVYMELSSLRSEDTAVYYCARGGYYYDSRAWFAYWGQGTLVTVSS
VL: QAVVTQEPSLTVSPGGTVTLTCRSSTGTVTTSNYANWVQQKPGQAPRGLIGGTNNRAPWTPARFSGSLLGDKAALTLSGAQPEDEAEYYCALWFSNHWVFGGGTKLTVLG
